Measured values published in the nanobody polyreactivity screen of Harvey et al. (2022).

Experiment: yeast display, Sf9 membrane polyspecificity reagent, FACS + sequencing; frameworks hold sequencing errors
In short: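 Genes from sorted yeast were amplified by colony PCR, read by MiSeq 2 × 250 sequencing and filtered on CDR length. These cells carried a synthetic nanobody library in Saccharomyces cerevisiae BJ5465 and were sorted by FACS into low and high (top ~1%) gates on anti-HA and streptavidin fluorescence. Polyreactivity is labelled according to the gate of origin.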

Row | Sequence | polyreactivity (PSR sort gate)
1 | QVQLQESGGGLEQAGGSLRLSCAASGTNTVLYKMGWFRQAPGKEREFVASINFGTSTYYADSVKGRFTDSRDSAINTVFLHMNSLKPEDTSVYYCAAAYRWQDFYRYWGQGTQVTVSS | low polyreactivity
2 | QVQLQESGGGLEQAGGSLRLSCAASGYISDIGTMGWYRQAPGKEREFVATLVVGSTTNYADSVKGRFTISRDNAKNTVYLQPESGRYRGVLLRGWLLAVGKFTYWGQGTQETVSS | low polyreactivity
3 | QVQLQESGGGLEQAGGSLRLTCAASGNISVTGFMGWYRQEPGKEREIVASIGIGGTTYYADSVKGRFYISRDNAKNTVYLQMNSLKPEDTAVYYCADRYLYYAYSYWCQGTQVTVSS | low polyreactivity
4 | QVQLQESGGGLLQVGGSLRLSCAASGTIFIYGFLGWNRQAPGKERELVASINLGGITNYADSVKGRFTISRDNAKKTVYLQMISLKPEDTAVYYCAAYVVTGQNYGYWGQGTQVTVSS | low polyreactivity
5 | QVQLQESGGGLMQAGGSQRLSCAASGSISYYSDMGWYRQAPGKEREFVAGIGYGTTTNYADSVKGRFTTSRDNAKKTVYLQMISIKPEDTAVYYCAAYQGNGYEFYYWGQGTQVTVRS | low polyreactivity
6 | QVQLQESGGGLVKAGGSLRLSCAASGNISPRDAMGWYRQAPGEERDLVASNAYSAITYYADCVKGRYTISRDNAKNTVYLQINSLKPEDTEVYYCAVYQFTYPVFPAYWGQGTQVTVSS | low polyreactivity
7 | QVQLQESGGGLVKAGGSLRLSCAASGNISPRDAMGWYRQAPGEERDLVASNPYSAITYYADGVKGRYTISRDNAKNTVYLQMNSLKPEDTEVYYCAVYQFTYAVFPAYWGQGSQVTVSS | low polyreactivity
8 | QVQLQESGGGLVLAGGSLRLSCAASGSISAQAYMGWDRQAPGKEREHVAGINYGDNTNYADSVKGRFTISRDNEHRVSADEQPETGRYRGVLLRGFLELFYYYIYWGQGTQVTVSS | high polyreactivity
9 | QVQLQESGGGLVLAGGSLRLSCSASGNISVYGSMGWYRQSPGKEREFVATIDPGTNTNYADSVKDRFTISRDYAKNSVYLQMNSLKPEDTAVYYCAVEAGSDWPYRYWGQGTQVTVSS | low polyreactivity
10 | QVQLQESGGGLVQACGSLCLICAASSYFSTYYSMGWYRKAPSKGRELVAAIDSGSSTNYADSVEGRFTISRDNAKNTVYLQMISLKPGDTAVYYCAAPWGHLVVHPYRGQGTQVTVSS | high polyreactivity
11 | QVQLQESGGGLVQACGSLRLSCAASGYIFSHQYMGLYRQAPGKERELVASISPGATTNYADSVKGRLTISRDNAKNTVYLQMNSLKPEDTAVYYYAVYQILDRRLSYWGQGTQVTVSC | high polyreactivity
12 | QVQLQESGGGLVQAGDSQRLSCAASGNIFRFTDRGWYRQAPGKERELVAAINAGSTTYYADSVKGRFTISRDNAKNTVYLQMNSLKPEDTAVYYCAVYYLGSGTFGYWGQGAQVTVSS | high polyreactivity
13 | QVQLQESGGGLVQAGGCLSCTASGTIFGQGDMGWYRPAPGKERELVATINDGASTYYADSVKGRFTISRDKAKNTVYLQKNSLNQDDTAVYYCAVFTDITTYFGYWGQGTQVTVSS | low polyreactivity
14 | QVQLQESGGGLVQAGGGLRLSCAASGSILNQAPMGWYRQAPGKERELVATINEGSITNYADSVKGRFTISRDNAKNTVYLQMNSLKPEDTAVYYCAVNKYIGLDYHYWGQGTQVTVSS | low polyreactivity
15 | QVQLQESGGGLVQAGGGLRLSCAASGTISGPHVMGWYRQAPGKEREFVAAINVGANTYYADNVKGRFTISRDNAKNTVYLQMNSLNPEDTAVYYCAAVYYGDIGHEYWGQGTQVTVSC | low polyreactivity
16 | QVQLQESGGGLVQAGGSLCLSCAASSYFSTYYSMGSYRKAPSKGRELVAAIDSGSSTNYADSVEGRFTISRDNAKNTVYLQMNSLKPGDTAVYYCAARDDARRGFYYWGQGTQVTVSS | high polyreactivity
17 | QVQLQESGGGLVQAGGSLLSCAASGTISWVDEMGWYRQAPGNERELVAGIAGGGNTNYADSVKGRFTISRDNAKNTVYLKMNSLDTAVYYCAVVGFGRGTHIYWGQGTQVTVSS | high polyreactivity
18 | QVQLQESGGGLVQAGGSLLSCAASGTISWVDEMGWYRQAPGNERELVAGIAGGGNTNYADSVKGRFTISRDNAKNTVYLLMNSLDTAVYYCAVVGFGRGNHIYWGQGTQVTVSS | high polyreactivity
19 | QVQLQESGGGLVQAGGSLLSCAASGTISYYREMGWYRQSPGKERELVAGIGVGTITYYADSVKGRFTISRDNAKNTVYLQMNSLKPEDTAVYYCAAHIDGNDSNAYWGQGTQVTVSS | low polyreactivity
20 | QVQLQESGGGLVQAGGSLRLICAASGYISSWYPMGWYRQAPGKEREFVGTIAPGATTYYADSVKGRFTIIRDYEKNTVYLQMNSLKPEDTAVYYCAAGPENNDFYSYWGQGTQVTVSS | low polyreactivity
21 | QVQLQESGGGLVQAGGSLRLRCAASGTISDRAGMGWYRQAPAKNAIVATIDRGTNTNYADSVKGRFTISRDNAKNTVYLQMNSLKPEDTAVYNCAADGRYYIYLDYWGQGTQVTVSS | low polyreactivity

Row | Sequence | polyreactivity (PSR sort gate)
22 | QVQLQESGGGLVQAGGSLRLSCAASGNIFEADIMGWNHQAQGKERELVASITDGGSTNYADSVKGRFTINRDNAKNNVYLQMNSLKPEDTAVYYCAAFAYPDIPTYFDYDIFTYWGQGTQVTVSS | high polyreactivity
23 | QVQLQESGGGLVQAGGSLRLSCAASGNIFEADIMGWYHQAQGKERELVASITDGGSTNYADSVKGRFTINRDNAKNNVYLQMNSLKPADTAVYYCAAIAYPDIPTYFDYDSDYFYWGQGTQVTVSS | high polyreactivity
24 | QVQLQESGGGLVQAGGSLRLSCAASGNIFLGDTMGWYRQAPGKEREFVAAIARGGNPYYADSVKGRFTISRNNANNTVYLQKNSLKTEDTAVHYCAVQRSHASDYNYWCQGTQVTVSS | low polyreactivity
25 | QVQLQESGGGLVQAGGSLRLSCAASGNISPQLYMGWYRQAQGKEREFVAAIAEGSTTYYAESVKGRFTISRDDAKNTVYLQINSLKSEDTAVYYCAARYENAESFYYWGQGSQVTVSS | high polyreactivity
26 | QVQLQESGGGLVQAGGSLRLSCAASGNISQVGVMGWYRQAPGKERELVATINFGGSSYYADSVKGRFTISRDNAKITVYLQMNSLKPEDTAVSYCNAKAYVWYLYDEFGYWGQGTQVTVSS | low polyreactivity
27 | QVQLQESGGGLVQAGGSLRLSCAASGNISVTGFMGWYRQAPGKERELVASIGIGGTTYYADSVKGRFSISRDNAKNTVYLQMNSLKPEDTAVYYCAARYLYYAYSYWGQATQVTVSS | low polyreactivity
28 | QVQLQESGGGLVQAGGSLRLSCAASGNIVDADIMGWYRQAPGKERELVASITDGGSTNYADSVKGRFTISRDNAKNTVYLQMNSLKPEDTAVYYCAAIAYPDIPTYFDYDSEYFYWGQGTQVTVSS | low polyreactivity
29 | QVQLQESGGGLVQAGGSLRLSCAASGNIVVADIMGWYRQAPGKERELVASITDGGSTNYADNVKGRFTISRDNAKNTVYLQMNSLIPEDTAVYYCAANAFPDIPTYFVYDYDYFYWGQGTQVTVSG | high polyreactivity
30 | QVQLQESGGGLVQAGGSLRLSCAASGSIARYYDMGWYLQAPGKEREFVAGISGGAISYYADSVKGRLTISRDNAKNTVYLQMNSLKPEDTAVYYCAADTCVYQYHSYWGQGTQVTVSS | low polyreactivity
31 | QVQLQESGGGLVQAGGSLRLSCAASGSIFEELDMGWYRQAPGKEREFVAAIGTGSTTYYADSVKGRFTISRDNAKNTVYLQMNSLKPEDTAVYYCAVTYSVYLPFRYWGQGTQVTVSS | high polyreactivity
32 | QVQLQESGGGLVQAGGSLRLSCAASGSIFHLHIMCWYRQAPGKERESVAAISNGTSTYYADSVKGRFTICRDNAKNTVYLQMNSPKPDDTAVYYCAALFLVSKHHHYWGEGTQVTVSS | low polyreactivity
33 | QVQLQESGGGLVQAGGSLRLSCAASGSIIEELDMAWYRQAPGKEREFVAAIGTGSTTYYADSVKGRFTSSRDNAKNTVYLQMNSLKPEDTAVYYCAVTYSVYLPFRYWGQGTQVTVSS | high polyreactivity
34 | QVQLQESGGGLVQAGGSLRLSCAASGSISGPHVMGWSRQAPGKEREFVAAINVGANTYYADNVKGRFTISRDNAKNTVYLRMNSLKPEDTAVYYCAAVYYGDIGHEYWGQGTQVTVSC | low polyreactivity
35 | QVQLQESGGGLVQAGGSLRLSCAASGSISGPHVMGWYRQAPGKEREFVAAINVGANTYYADNVKGRFTISRDNAINTVYLQMNSLKTEDTAVYYCAAVYYGDIGHEYWGQGTQVTVSC | low polyreactivity
36 | QVQLQESGGGLVQAGGSLRLSCAASGSISGPHVMGWYRQAPGKVREFVAAINVGANTYYADNVKGRFTISRDNAKNTVYLQMNSLKPEDTAVYYCAAAYYGDIGHEYWGQGTQVTVSS | low polyreactivity
37 | QVQLQESGGGLVQAGGSLRLSCAASGSISHYIFMGWYRQAPGKQREFVAGIGYGGTTNYADSVKGRFTISRDNAKNTVYLQRNSLKPEDTGMYYCAAREATEFYLYYWGQGTQVTVSS | low polyreactivity
38 | QVQLQESGGGLVQAGGSLRLSCAASGSISILQSMGWYRQAPGKERELVAGINWGATTYYADSVKGRLTTSRDYAKNTVYLQLNSLKPEDTGVYYCAFQTYFTYPLLYWGQGTQVNVSS | low polyreactivity
39 | QVQLQESGGGLVQAGGSLRLSCAASGSISLGDNMGWYRQAPGKEREFVATISVGGITYYVDSVKGRFTISRDIAKNTVYLQMNSLKPEDTAVYYCAALDIYYFRYYYWGQGTQVTVSS | low polyreactivity
40 | QVQLQESGGGLVQAGGSLRLSCAASGSISRLDYMGWYRQASGKERELVAAIDNGSTTYYADSVKGRLTISRDNAKYTVYLQMNSLKPADTAVYFCAAVRGRGGTHAYWGQGTQVTVSG | low polyreactivity
41 | QVQLQESGGGLVQAGGSLRLSCAASGSISSRDAMGWYRQAPGKEREFVATIASGTTTYYADSVKGSFTISRDNAENTVYLQTYRLKPEDTAVYYCAAPTIQIYPFYYWGQGTQVNVSS | high polyreactivity
